{
  "source": "patent US20130130922",
  "about": "“ANALYSIS OF METHYLATION SITES” (Centre for Addiction and Mental Health, published 2013)",
  "binders": {"B1": {"name": "24-mer duplex oligonucleotide (dsDNA)", "DNA 1": "GCATTACGCGCCAGGTCGTTTCGT", "DNA 2": "TACGAAACGACCTGGCGCGTAATG"}},
  "target": "M.SssI Q142A/N370A (UniProt P15840 SEQ:1-386, Q142A,N370A)",
  "sequence (P15840 whole entry Q142A/N370A)": "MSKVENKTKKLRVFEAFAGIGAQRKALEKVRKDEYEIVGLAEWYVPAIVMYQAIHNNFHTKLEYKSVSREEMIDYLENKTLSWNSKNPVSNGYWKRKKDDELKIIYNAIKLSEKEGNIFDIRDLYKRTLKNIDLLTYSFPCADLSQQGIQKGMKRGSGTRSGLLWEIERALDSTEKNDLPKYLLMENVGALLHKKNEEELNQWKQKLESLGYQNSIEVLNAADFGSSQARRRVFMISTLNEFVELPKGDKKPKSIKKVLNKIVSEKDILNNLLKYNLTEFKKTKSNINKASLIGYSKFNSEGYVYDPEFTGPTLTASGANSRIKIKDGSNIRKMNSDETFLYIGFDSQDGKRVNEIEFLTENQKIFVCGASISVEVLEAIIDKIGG",
  "test": "Ado-6-amine 80 uM, no Mg, 37 C; modified deoxycytidine detected by HPLC/ESI-MS",
  "settings": "tags: His6",
  "data": [
    {"binder": "B1", "values": [
      {"measurement": "binding result", "result": "binds"}
    ]}
  ]
}
